Results taken from the supplement of paper PMC9170038.

Tested on: MS2 coat protein
Test: apparent KD of MS2 coat protein; designed switch direction (-1 OFF switch, 1 ON switch): -1; higher = weaker reporter binding
How it was run: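 For each design, the apparent KD is the median over clusters of curves fitted to normalised cluster fluorescence. Clusters held RNA switches with common flanks, transcribed on Illumina chips by stalled E. coli RNA polymerase. These were titrated with SNAP-549-labelled MS2 coat protein, doubling from 0.7 or 1.5 nM to 3 µM, without input, with 200 uM small-molecule ligand, or with an oligonucleotide input.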

[1] = input ligand: microRNA oligo, concentration not stated
[2] = Eterna round: R95, input ligand: FMN 200 uM
[3] = Eterna round: R95, input ligand: microRNA oligo, concentration not stated
[4] = Eterna round: R95, input ligand: none

Sequence: AGGACAUGAGGAUCACCCAUGUAGUGAGGUGUAUCCGAAGACGAGGAUAUACAGAGGAAAUAUCUGUAGAAGGUGUUAUAAAUU [Atleusan] (Eterna round: R96, puzzle: Exclusion NG 3)
- apparent KD of MS2 coat protein (input ligand: FMN 200 uM): 726 nM
- apparent KD of MS2 coat protein [1]: 229 nM
- apparent KD of MS2 coat protein (input ligand: none): 766 nM

Sequence: AGGAGUAGUAUCCGAUCCUACAUGAGGAUCACCCAUGUAGCUAGACGUGCACGCGAUGCUCGUCAGACUACCAGAUG [salish99_TOv1_r3_034] (puzzle: Sensor v3, turn-off variant 1)
- apparent KD of MS2 coat protein [2]: 99.4 nM
- apparent KD of MS2 coat protein [3]: 116 nM
- apparent KD of MS2 coat protein [4]: 143 nM

Sequence: AGGAUCCUAGGAUAUGCUGGGUAUCGCUGUCGGAGGGACAGACAUGAGGAUCACCCAUGUAGAAGGAGGCGCUC [Eternabot (L1) Solution 5] (Eterna round: R97, puzzle: Exclusion 2)
- apparent KD of MS2 coat protein (input ligand: FMN 200 uM): 3680 nM
- apparent KD of MS2 coat protein (input ligand: none): 667 nM

Sequence: AGGAUGUUAGGAUAUCGAAGGUUGUGGCAGGCGGGAAUUUGCGAGAAGGAACAUGAGGAUCACCCAUGUGAAAU [JR_Exclu4_Sub044] (puzzle: Exclusion 4)
- apparent KD of MS2 coat protein [3]: 19.7 nM

Sequence: AGGGAGUAAGGAUAUCGGAAAGGACACGAAAGUGACAAAGACGAGAAGGUACAUGAGGAUCACCCAUGUAAAAA [milkweed 24] (Eterna round: R96, puzzle: Exclusion 4)
- apparent KD of MS2 coat protein [1]: 18.2 nM

Sequence: AGGGCUGCUCAGGAUAUCCGUAAAAGCCGAAAAGGAGAAGGGAGCACAUGAGGAUCACCCAUGUGAUCCUAAAA [Orbemaored] (puzzle: Exclusion 6)
- apparent KD of MS2 coat protein [2]: 28 nM
- apparent KD of MS2 coat protein [3]: 14.6 nM
- apparent KD of MS2 coat protein [4]: 15.5 nM

Sequence: AGGUAACAUGAGGAUCACCCAUGUCAGGAUAUCAGUAAGAGGAGGAUAGAAUAGAGUAUGAGAAGGGACUAUAU [Excluse me! 23 - Jieux - Exclusion 1] (puzzle: Exclusion 1)
- apparent KD of MS2 coat protein [2]: 48 nM
- apparent KD of MS2 coat protein [3]: 40.7 nM
- apparent KD of MS2 coat protein [4]: 47.8 nM

Sequence: AGGUAACAUGAGGAUCACCCAUGUCAGGAUAUCAUGAAGAGUAGAUUAGAGGAGAGGUUGAGAAGGGACUAUAU [Excluse me! 15 - Jieux - Exclusion 1] (puzzle: Exclusion 1)
- apparent KD of MS2 coat protein [3]: 38.5 nM

Sequence: AGGUAGCAAGGAUAUACAACUUUGGGCACUGCCUCUUGGAGACAUGAGGAUCACCCAUGUAGAAGGUGCAGGCC [Tibiarusor] (puzzle: Exclusion 2)
- apparent KD of MS2 coat protein [3]: 11.7 nM

Sequence: AGGUAGUCAGGAUAUUAAGAGUAGCGGGAUAACGCUACGAGUGAGAAGGGACAUGAGGAUCACCCAUGUUUAUU [JR_Ex4_Sub070] (Eterna round: R97, puzzle: Exclusion 4)
- apparent KD of MS2 coat protein (input ligand: FMN 200 uM): 23 nM
- apparent KD of MS2 coat protein (input ligand: none): 24.8 nM

Sequence: AGGUCAUUAGGAUAUGUCGAAUAUGACAUGAGGAUCACCCAUGUGGUAGGCAUGUCGUAGACAGAAGGAGUGUAAA [Laqureis] (Eterna round: R97, puzzle: Exclusion 5)
- apparent KD of MS2 coat protein (input ligand: FMN 200 uM): 219 nM
- apparent KD of MS2 coat protein (input ligand: none): 75.9 nM

Sequence: AGGUCCUUCUGGAGACAUGAGGAUCACCCAUGUCGAGUCAGCGAGGAUAUCGGUAAGACAUGUGAUGAGAAGGCGCAGACCGAU [Ex NG3 #43] (Eterna round: R96, puzzle: Exclusion NG 3)
- apparent KD of MS2 coat protein (input ligand: FMN 200 uM): 17.2 nM
- apparent KD of MS2 coat protein [1]: 11.9 nM
- apparent KD of MS2 coat protein (input ligand: none): 12.7 nM

Sequence: AGGUCCUUCUGGAGACAUGAGGAUCACCCAUGUCGAGUCAGCGAGGAUAUCGGUUAAUAAUGUGAUGAGAAGGCGCGGACCGAU [Ex NG3 #54] (Eterna round: R96, puzzle: Exclusion NG 3)
- apparent KD of MS2 coat protein (input ligand: FMN 200 uM): 41.5 nM
- apparent KD of MS2 coat protein [1]: 11.6 nM
- apparent KD of MS2 coat protein (input ligand: none): 19.3 nM

Sequence: AGGUGACAUGAGGAUCACCCAUGUAAGGAUAUACGGUUAGUGGAGAGAGGGAAAAGAGGUAGAAGGUACGGAGC [JR_Exclu1_Sub057] (puzzle: Exclusion 1)
- apparent KD of MS2 coat protein [3]: 156 nM

Sequence: AGGUGACAUGAGGAUCACCCAUGUAAGGAUAUACGGUUAGUGGAGAGAGGGAAGAGAGGUAGAAGGUACGGAGC [JR_Exclu1_Sub058] (puzzle: Exclusion 1)
- apparent KD of MS2 coat protein [2]: 240 nM
- apparent KD of MS2 coat protein [3]: 227 nM
- apparent KD of MS2 coat protein [4]: 316 nM

Sequence: AGGUGAUAUCUGUCGAUGGACAUGAGGAUCACCCAUGUGAGCUUUUUGCUCGUCUUAUAAACCGGUGACAGACCUUC [Sensor v3, turn-off variant 1 (MOD of Zalaso)] (puzzle: Sensor v3, turn-off variant 1)
- apparent KD of MS2 coat protein [2]: 49.8 nM
- apparent KD of MS2 coat protein [3]: 20.6 nM
- apparent KD of MS2 coat protein [4]: 69.4 nM

Sequence: AGGUGCUUCAGGAGACAUGAGGAUCACCCAUGUUGAGUUAGCGAGGAUAUCGGUAACCCUUGUGAUGAGAAGGCGCAAACCAGU [Ex NG3 #45] (Eterna round: R96, puzzle: Exclusion NG 3)
- apparent KD of MS2 coat protein (input ligand: FMN 200 uM): 39.5 nM
- apparent KD of MS2 coat protein [1]: 14.4 nM
- apparent KD of MS2 coat protein (input ligand: none): 29.1 nM

Sequence: AGGUGCUUCUGGAGACAUGAGGAUCACCCAUGUUGAGUUAGCGAGGAUAUCGGUAAGGCAUGUGAUGAGAAGGCGCAAACCGAU [Ex NG3 #49] (Eterna round: R96, puzzle: Exclusion NG 3)
- apparent KD of MS2 coat protein (input ligand: FMN 200 uM): 50.6 nM
- apparent KD of MS2 coat protein [1]: 35.5 nM
- apparent KD of MS2 coat protein (input ligand: none): 49.5 nM

Sequence: AGGUGUAGAGGAUAUUGAGUUCUUUACAUGAGGAUCACCCAUGUCCUGGGCACCCAGGACCAAGAAGGCUACACCA [Omei Ex5 D31] (Eterna round: R97, puzzle: Exclusion 5)
- apparent KD of MS2 coat protein (input ligand: FMN 200 uM): 38.4 nM
- apparent KD of MS2 coat protein (input ligand: none): 72.6 nM

Sequence: AGUAACCGUCACGAAAGUGAUGGUUACACAAGCAAAUGUACAUGAGGAUCACCCAUGUCCUCAAUUGCUCGUCUUAU [Sensor 3 - 50] (puzzle: Sensor v3, turn-off variant 2)
- apparent KD of MS2 coat protein [2]: 106 nM
- apparent KD of MS2 coat protein [3]: 165 nM
- apparent KD of MS2 coat protein [4]: 137 nM

Sequence: AGUAACUAUCACGAAAGUGAUAGUUACAAAACAAGUGAAACAUGAGGAUCACCCAUGUCCUCAUUUGCUCGUCUUAU [Sensor 3 - 2] (puzzle: Sensor v3, turn-off variant 2)
- apparent KD of MS2 coat protein [2]: 118 nM
- apparent KD of MS2 coat protein [3]: 257 nM
- apparent KD of MS2 coat protein [4]: 189 nM

Sequence: AGUAACUAUCACGAAAGUGAUAGUUACAAACAAGUGGAAACAUGAGGAUCACCCAUGUCCUCAUUUGCUCGUCUUAU [Sensor 3 - 6] (puzzle: Sensor v3, turn-off variant 2)
- apparent KD of MS2 coat protein [2]: 574 nM
- apparent KD of MS2 coat protein [3]: 556 nM
- apparent KD of MS2 coat protein [4]: 503 nM

Sequence: AGUAACUAUCACGAAAGUGAUAGUUACAACAAGUGAUAAACAUGAGGAUCACCCAUGUCCUCAUUUGCUCGUCUUAU [Sensor 3 - 9] (puzzle: Sensor v3, turn-off variant 2)
- apparent KD of MS2 coat protein [2]: 256 nM
- apparent KD of MS2 coat protein [3]: 283 nM
- apparent KD of MS2 coat protein [4]: 326 nM

Sequence: AGUAACUAUCACGAAAGUGAUAGUUACAAUAGCAGUGAAACAUGAGGAUCACCCAUGUCCUCAUUUGCUCGUCUUAU [Sensor 3 - 23] (puzzle: Sensor v3, turn-off variant 2)
- apparent KD of MS2 coat protein [2]: 49.6 nM
- apparent KD of MS2 coat protein [3]: 566 nM
- apparent KD of MS2 coat protein [4]: 61.2 nM

Sequence: AGUAACUAUCACGAAAGUGAUAGUUACGCAAGCAGUGAAACAUGAGGAUCACCCAUGUCCUCAUUUGCUCGUCUUAU [Sensor 3 - 26] (puzzle: Sensor v3, turn-off variant 2)
- apparent KD of MS2 coat protein [2]: 53.9 nM
- apparent KD of MS2 coat protein [3]: 435 nM
- apparent KD of MS2 coat protein [4]: 48.6 nM

Sequence: AGUACUAACACGAGAGUGUUAGUACUAUAAGCUUGUGUUACAUGAGGAUCACCCAUGUCCUCAUAAGCUCGUCUUAU [Mat - Sensor v3 - Turn-off var 2 - D79] (puzzle: Sensor v3, turn-off variant 2)
- apparent KD of MS2 coat protein [2]: 124 nM
- apparent KD of MS2 coat protein [3]: 40.5 nM
- apparent KD of MS2 coat protein [4]: 116 nM

Sequence: AGUACUAACACGUGAGUGUUAGUACAAUAAGCUUGUGAAACAUGAGGAUCACCCAUGUCCUCAUAAGCUCGUCUUAU [salish99_TOv2_r3_061] (Eterna round: R96, puzzle: Sensor v3, turn-off variant 2)
- apparent KD of MS2 coat protein (input ligand: FMN 200 uM): 16.5 nM
- apparent KD of MS2 coat protein [1]: 496 nM
- apparent KD of MS2 coat protein (input ligand: none): 18.5 nM

Sequence: AGUACUAACACGUGAGUGUUAGUACAAUAAGCUUGUGAAACAUGAGGAUCACCCAUGUCCUCAUAAGCUCGUCUUAU [salish99_TOv2_r3_061] (puzzle: Sensor v3, turn-off variant 2)
- apparent KD of MS2 coat protein [2]: 17.4 nM
- apparent KD of MS2 coat protein [3]: 1070 nM
- apparent KD of MS2 coat protein [4]: 15.6 nM

Sequence: AGUAGAUCUACGCUUGCGUGGAUCUGCAAUGCAGGUGUUACAUGAGGAUCACCCAUGUCCUCGUUUGCUCGUCUUAG [JL turnoff v2 99.11] (puzzle: Sensor v3, turn-off variant 2)
- apparent KD of MS2 coat protein [2]: 145 nM
- apparent KD of MS2 coat protein [3]: 508 nM
- apparent KD of MS2 coat protein [4]: 133 nM

Sequence: AGUAGAUCUACGCUUGCGUGGAUCUGCGAGGCAGGUGUAACAUGAGGAUCACCCAUGUCCUCAUUUGUUCGUCUUAU [JL turnoff v2 99.19] (puzzle: Sensor v3, turn-off variant 2)
- apparent KD of MS2 coat protein [2]: 379 nM
- apparent KD of MS2 coat protein [3]: 377 nM
- apparent KD of MS2 coat protein [4]: 477 nM

Sequence: AGUAGGAGAGGAUAUACAUGAAGUCGAAAGACUUCGACUCAACAUGAGGAUCACCCAUGUAGAAGGCUCCUACA [Omei Ex2 BD A7] (Eterna round: R97, puzzle: Exclusion 2)
- apparent KD of MS2 coat protein (input ligand: FMN 200 uM): 126 nM
- apparent KD of MS2 coat protein (input ligand: none): 47.3 nM

Sequence: AGUAGGUCUACCUUGGUGGAUCUGCAUAAUGCAAGUGUUACAUGAGGAUCACCCAUGUCCUCAUUUGCUCGUCUUAU [JL turnoff v2 99.22] (puzzle: Sensor v3, turn-off variant 2)
- apparent KD of MS2 coat protein [2]: 39.4 nM
- apparent KD of MS2 coat protein [3]: 105 nM
- apparent KD of MS2 coat protein [4]: 43.5 nM

Sequence: AGUAGUAGUAUCCGUUCUUACAUGAGGAUCACCCAUGUUUCUAGACGUGCACGCGAUGCUCGUCAGACUACCAGAUG [salish99_TOv1_r3_054] (puzzle: Sensor v3, turn-off variant 1)
- apparent KD of MS2 coat protein [2]: 61.2 nM
- apparent KD of MS2 coat protein [3]: 72.3 nM
- apparent KD of MS2 coat protein [4]: 68.9 nM
